# Test results taken from patent US20160194391A1 (AstraZeneca / MedImmune, published 2016).
# Where “and” joins values, the source holds several entries; their conditions need not be identical. Equal values may be shown once.
# T1: monkey IL-12 (macaque) (macaque, UniProt P48091 23-219; P48095 23-328)
# T1 sequence (looked up) 1: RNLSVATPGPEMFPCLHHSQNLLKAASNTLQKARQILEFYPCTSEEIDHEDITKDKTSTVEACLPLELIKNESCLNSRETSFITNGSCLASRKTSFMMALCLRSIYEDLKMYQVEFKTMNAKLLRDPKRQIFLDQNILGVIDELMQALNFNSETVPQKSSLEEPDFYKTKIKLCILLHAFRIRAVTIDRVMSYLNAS
# T1 sequence (looked up) 2: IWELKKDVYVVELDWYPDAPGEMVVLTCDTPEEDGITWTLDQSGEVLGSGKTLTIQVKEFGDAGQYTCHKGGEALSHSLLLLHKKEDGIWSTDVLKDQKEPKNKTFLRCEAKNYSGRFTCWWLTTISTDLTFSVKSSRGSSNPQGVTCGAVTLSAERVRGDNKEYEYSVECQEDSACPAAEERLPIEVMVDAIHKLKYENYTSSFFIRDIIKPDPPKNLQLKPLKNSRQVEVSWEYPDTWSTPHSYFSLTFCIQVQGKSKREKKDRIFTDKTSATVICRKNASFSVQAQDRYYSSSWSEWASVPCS
# T2: human dimeric IL-23 (eBiosciences 34-8239) (human, UniProt P29460 23-328; Q9NPF7 20-189)
# T2 construct: Baculovirus-derived heterodimer; the bioassay used eBioscience 14-8239 or Humanzyme HZ-1049; also called heterodimeric recombinant IL-23; eBio IL23
# T2 sequence (looked up) 1: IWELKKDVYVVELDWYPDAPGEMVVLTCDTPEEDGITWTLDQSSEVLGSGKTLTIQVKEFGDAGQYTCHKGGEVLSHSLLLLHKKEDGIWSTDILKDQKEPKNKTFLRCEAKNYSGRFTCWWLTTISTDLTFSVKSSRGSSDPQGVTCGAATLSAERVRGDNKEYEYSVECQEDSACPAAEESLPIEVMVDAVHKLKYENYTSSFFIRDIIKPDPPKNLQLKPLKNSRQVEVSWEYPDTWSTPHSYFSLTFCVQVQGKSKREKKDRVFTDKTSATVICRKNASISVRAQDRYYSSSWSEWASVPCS
# T2 sequence (looked up) 2: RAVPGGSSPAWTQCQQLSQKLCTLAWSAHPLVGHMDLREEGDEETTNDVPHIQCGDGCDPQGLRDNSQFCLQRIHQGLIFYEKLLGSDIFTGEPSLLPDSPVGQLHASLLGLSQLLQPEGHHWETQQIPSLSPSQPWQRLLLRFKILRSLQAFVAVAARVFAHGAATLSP
# Key:
# human IL-6 [1] = biological target: T3, human IL-6 (human, UniProt P05231 30-212); assay: cell-based or functional assay
# 3×FLAG-IL-6 [2] = biological target: T4, 3×FLAG-IL-6 (human); assay: SPR, 3×FLAG-IL-6 captured by anti-FLAG M2 on protein G, scFv as analyte (1-100 nM)
# T4 construct: it may hold the pre-pro-trypsin leader
# T4 sequence (chain, as listed by the source limits assumed): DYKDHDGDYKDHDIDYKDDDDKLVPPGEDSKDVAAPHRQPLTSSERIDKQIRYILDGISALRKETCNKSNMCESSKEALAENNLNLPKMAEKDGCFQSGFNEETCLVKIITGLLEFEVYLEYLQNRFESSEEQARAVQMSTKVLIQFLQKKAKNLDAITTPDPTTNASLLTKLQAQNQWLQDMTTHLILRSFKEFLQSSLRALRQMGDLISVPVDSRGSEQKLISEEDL
# Experimental: Equilibrium constants for scFvs were determined as previously described; however, the protocol was modified so that an epitope tagged IL-6 was captured on the chip surface and the dissociation of anti-IL-6 scFvs from IL-6 was monitored. Briefly, anti-FLAG® M2 antibody (200472, Agilent Technologies, Santa Clara, Calif.) was bound to Protein G, and then 3×FLAG-IL-6 was captured by the anti-FLAG antibody. The anti-IL-6 scFvs were assayed over a range of concentrations between 1 and 100 nM.
# Anti IL-6 scFvs, humanized using the one step method, retained IL-6 neutralization activity when expressed in mammalian cells, as shown for 13A8 (FIG. 11A and FIG. 11B), 28D2 and 9C8 v3-1 (FIG. 11C).
# 3×FLAG-IL-6 [3] = biological target: T4, 3×FLAG-IL-6; assay: as above; remark: listed apart in the source
# 3×FLAG-IL-6 [4] = biological target: T4, 3×FLAG-IL-6; assay: SPR, 3×FLAG-IL-6 captured by anti-FLAG M2 on protein G, scFv as analyte
# human IL-6 [5] = biological target: T3, human IL-6; assay: cell-based or functional assay; remark: listed apart in the source
# human IL-6 [6] = biological target: T3, human IL-6; assay: cell-based or functional assay; remark: listed apart in the source
# monkey IL-12 (macaque) [7] = biological target: T1, monkey IL-12 (macaque); assay: cell-based or functional assay
# [8] = biological target: T2, human dimeric IL-23 (eBiosciences …); assay: SPR, bispecific held on captured IL-6 (~240 RU), human dimeric IL-23 as analyte (3-25 nM)
# Experimental: SPR of bispecific scFvs were carried out as previously described for measuring the anti-IL-6 moiety; however, protocol modifications were required in order to determine the binding kinetics of the anti-IL-23 scFv, 31A12. Briefly, IL-23 binding by the bispecific was performed by first immobilizing the bispecific with IL-6 as described, but at a constant density (˜240 RU). Binding and dissociation of a recombinant human dimeric IL-23 (34-8239, eBiosciences, San Diego, Calif.) was assayed in concentrations ranging from 3 to 25 nM using the same parameters detailed above.
# 3×FLAG-IL-6 [9] = biological target: T4, 3×FLAG-IL-6; assay: SPR, 3×FLAG-IL-6 captured by anti-FLAG M2 on protein G, bispecific as analyte
# [10] = biological target: T2, human dimeric IL-23 (eBiosciences …); assay: cell-based or functional assay
# human IL-6 [11] = biological target: T3, human IL-6; assay: cell-based or functional assay; remark: listed apart in the source
# monkey IL-12 (macaque) [12] = biological target: T1, monkey IL-12 (macaque); assay: cell-based or functional assay; remark: listed apart in the source
binder,measurement,setting,value
"28D2 humanized scFv (mammalian expressed) (scFv, also called 28D2 scFv) scFv: DIQLTQSPSFLSASVGDRVTITCQASEDLFSSLAWYQQKPGKAPKLLIYSASTLASGVPSRFSGSGSGTDFTLTISSLQPEDFATYYCLGLYYYLTPDPIYGFGGGTKVEIKGGGGSGGGGSGGGGSGGGGSEVQLVESGGGLVQPGGSLRLSCTVSGLSLSKNAIAWVRQAPGKGLEWVGIIYAGGATTYASWAKGRFTISRDNSKNTLYLQMNSLRAEDTAVYYCAREYAGDSYYTGYTQLDLWGQGTLVTVSSGPPPPHHHHHH","EC50, inhibition of IL-6 induced B9 cell proliferation",human IL-6 [1],0.043 ng/mL
same,Kd,3×FLAG-IL-6 [2],109 pM
same,koff,3×FLAG-IL-6 [2],0.0001 s⁻¹
same,kon,3×FLAG-IL-6 [2],918000 M⁻¹ s⁻¹
same,Kd,3×FLAG-IL-6 [3],109 pM
same,koff,3×FLAG-IL-6 [3],0.0001 s⁻¹
same,kon,3×FLAG-IL-6 [3],918000 M⁻¹ s⁻¹
"28D2-C Aha (scFv, azidohomoalanine (Aha) in place of the single Met, at the C terminus) scFv: MAHHHHHHPPPPAAADIQLTQSPSFLSASVGDRVTITCQASEDLFSSLAWYQQKPGKAPKLLIYSASTLASGVPSRFSGSGSGTDFTLTISSLQPEDFATYYCLGLYYYLTPDPIYGFGGGTKVEIKGGGGSGGGGSGGGGSGGGGSEVQLVESGGGLVQPGGSLRLSCTVSGLSLSKNAIAWVRQAPGKGLEWVGIIYAGGATTYASWAKGRFTISRDNSKNTLYLQLNSLRAEDTAVYYCAREYAGDSYYTGYTQLDLWGQGTLVTVSSGM",Kd,3×FLAG-IL-6 [3],52 pM
same,koff,3×FLAG-IL-6 [3],7.6e-05 s⁻¹
same,kon,3×FLAG-IL-6 [3],1.45e+06 M⁻¹ s⁻¹
same,Kd,3×FLAG-IL-6 [4],67.4 pM
same,koff,3×FLAG-IL-6 [4],7.1e-05 s⁻¹
same,kon,3×FLAG-IL-6 [4],1.05e+06 M⁻¹ s⁻¹
"13A8 humanized scFv (mammalian expressed) (scFv, also called humanized scFv 13A8; mammalian 13A8 scFv) scFv: DIQLTQSPSFLSASVGDRVTITCQASQSISNELSWYQQKPGKAPKLLIYRASTLTSGVPSRFSGSGSGTEFTLTISSLQPEDFATYYCQQGYNSNDVDNVFGGGTKVEIKGGGGSGGGGSGGGGSGGGGSEVQLVESGGGLVQPGGSLRLSCTVSGIDLSSYDMSWVRQAPGKGLEWVGYIYTDSSTWYANWAKGRFTISRDNSKNTLYLQMNSLRAEDTAVYYCARGSTDYAFDTRLDLWGQGTLVTVSSGPPPPHHHHHH","EC50, inhibition of IL-6 induced B9 cell proliferation",human IL-6 [1],0.064 ng/mL
same,Kd,3×FLAG-IL-6 [2],98.2 pM
same,koff,3×FLAG-IL-6 [2],8.64e-05 s⁻¹
same,kon,3×FLAG-IL-6 [2],876000 M⁻¹ s⁻¹
same,"EC50, neutralization of IL-6",human IL-6 [5],0.059 ng/mL
"13A8c-PEG20 (scFv, C-terminal azidohomoalanine (Aha) conjugated to 20 kDa linear PEG bis-alkyne) scFv: DIQLTQSPSFLSASVGDRVTITCQASQSISNELSWYQQKPGKAPKLLIYRASTLTSGVPSRFSGSGSGTEFTLTISSLQPEDFATYYCQQGYNSNDVDNVFGGGTKVEIKGGGGSGGGGSGGGGSGGGGSEVQLVESGGGLVQPGGSLRLSCTVSGIDLSSYDLSWVRQAPGKGLEWVGYIYTDSSTWYANWAKGRFTISRDNSKNTLYLQLNSLRAEDTAVYYCARGSTDYAFDTRLDLWGQGTLVTVSS",EC50 (pg/mL) of the folded scFv-PEG,human IL-6 [6],93 pg/mL
"13A8n-PEG20 (scFv, N-terminal azidohomoalanine (Aha) conjugated to 20 kDa linear PEG bis-alkyne) scFv: DIQLTQSPSFLSASVGDRVTITCQASQSISNELSWYQQKPGKAPKLLIYRASTLTSGVPSRFSGSGSGTEFTLTISSLQPEDFATYYCQQGYNSNDVDNVFGGGTKVEIKGGGGSGGGGSGGGGSGGGGSEVQLVESGGGLVQPGGSLRLSCTVSGIDLSSYDLSWVRQAPGKGLEWVGYIYTDSSTWYANWAKGRFTISRDNSKNTLYLQLNSLRAEDTAVYYCARGSTDYAFDTRLDLWGQGTLVTVSS",EC50 (pg/mL) of the folded scFv-PEG,human IL-6 [6],1980 pg/mL
"13A8L-PEG20 (scFv, azidohomoalanine (Aha) in the linker (13A8L) conjugated to 20 kDa linear PEG bis-alkyne) scFv: DIQLTQSPSFLSASVGDRVTITCQASQSISNELSWYQQKPGKAPKLLIYRASTLTSGVPSRFSGSGSGTEFTLTISSLQPEDFATYYCQQGYNSNDVDNVFGGGTKVEIKGGGGSGGGGSGGGGSGGGGSEVQLVESGGGLVQPGGSLRLSCTVSGIDLSSYDLSWVRQAPGKGLEWVGYIYTDSSTWYANWAKGRFTISRDNSKNTLYLQLNSLRAEDTAVYYCARGSTDYAFDTRLDLWGQGTLVTVSS",EC50 (pg/mL) of the folded scFv-PEG,human IL-6 [6],278 pg/mL
"31A12c-PEG-13A8c bispecific (bispecific antibody, C-terminal azidohomoalanine (Aha) joined through a linear 20 kDa PEG to the Aha of the other scFv, also called 31A12c-20KPEG-13A8c; 13A8c-PEG-31A12c) scFv 1: DIQLTQSPSFLSASVGDRVTITCQASEDIESYLAWYQQKPGKAPKLLIYSASTLTSGVPSRFSGSGSGTEFTLTISSLQPEDFATYYCLGADDTTTVFGGGTKVEIKGGGGSGGGGSGGGGSGGGGSEVQLVESGGGLVQPGGSLRLSCTASGFSLSSYWLTWVRQAPGKGLEWVGTIATSSTYYASWAKGRFTISRDNSKNTLYLQLNSLRAEDTAVYYCARGLTTDYDLDLWGQGTLVTVSS scFv 2: DIQLTQSPSFLSASVGDRVTITCQASQSISNELSWYQQKPGKAPKLLIYRASTLTSGVPSRFSGSGSGTEFTLTISSLQPEDFATYYCQQGYNSNDVDNVFGGGTKVEIKGGGGSGGGGSGGGGSGGGGSEVQLVESGGGLVQPGGSLRLSCTVSGIDLSSYDLSWVRQAPGKGLEWVGYIYTDSSTWYANWAKGRFTISRDNSKNTLYLQLNSLRAEDTAVYYCARGSTDYAFDTRLDLWGQGTLVTVSS","IC50 (read off the curve) (interferon-gamma from NK92 cells, OD450)",monkey IL-12 (macaque) [7],~10 ng/mL
same,Kd,[8],91.8 pM
same,koff,[8],7.11e-05 s⁻¹
same,kon,[8],773000 M⁻¹ s⁻¹
same,Kd,3×FLAG-IL-6 [9],215 pM
same,koff,3×FLAG-IL-6 [9],5.14e-05 s⁻¹
same,kon,3×FLAG-IL-6 [9],290000 M⁻¹ s⁻¹
same,"Anti IL-23 EC50, batch A",[10],2.94 ng/mL
same,"Anti IL-23 EC50, batch B",[10],1.19 ng/mL
same,"Anti IL-23 EC50, batch C",[10],2.04 ng/mL
same,"Anti IL-6 EC50, batch A",human IL-6 [11],0.082 ng/mL
same,"Anti IL-6 EC50, batch B",human IL-6 [11],0.064 ng/mL
same,"Anti IL-6 EC50, batch C",human IL-6 [11],0.136 ng/mL
same,IC50 (read off the curve),monkey IL-12 (macaque) [12],~10 ng/mL and ~20 ng/mL
